Tests used:
Details in all cases: 20 nM; 72 h
MCF10A [1] = test: one-nucleolus phenotype percent effect (relative to siNT 0% and siNOL11 100%); higher = more cells with one nucleolus (ribosome biogenesis inhibition)
Procedure: (§1)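 After 72 h, cells were fixed and stained with Hoechst and anti-fibrillarin, and nucleoli per nucleus were counted with CellProfiler. Values are plate-adjusted percent effect for the one-nucleolus and 5+ nucleoli phenotypes, normalised to siNT (0%) and to the positive controls siNOL11 or siKIF11 (100%), as the mean of biological triplicates. Percent viability is the nuclei count relative to siNT.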

MCF10A [2] = test: 5+ nucleoli phenotype percent effect (relative to siNT 0% and siKIF11 100%); higher = more cells with five or more nucleoli
Procedure: as §1

MCF10A [3] = test: percent viability (nuclei count relative to siNT); higher = more viable cells
Procedure: as §1

Sequence	one-nucleolus phenotype percent effect (MCF10A [1])	5+ nucleoli phenotype percent effect (MCF10A [2])	percent viability (MCF10A [3])
AUAUUACCAUUAGCUCAUCUUU [hsa-miR-556-3p]	-7.76%	-10.1%	46.5%
AUCGGGCCCUCGGCGCCGG [hsa-miR-3181]	8.67%	-23.1%	31.6%
AGCAGCAUUGUACAGGGCUAUGA [hsa-miR-103a-3p]	15.6%	-29%	36.3%
UGCAAAAGUAAUCACAGUUUUU [hsa-miR-548f-5p]	-27.5%	23.9%	75.6%
UCUCAGCUGCUGCCCUCUCCAG [hsa-miR-6787-3p]	-24.6%	41.8%	116%
UCGAGGACUGGUGGAAGGGCCUU [hsa-miR-3131]	8.15%	-6.74%	47.9%
UGAGGUGACCGCAGAUGGGAA [hsa-miR-7854-3p]	29.8%	-6.86%	14.8%
CGGGAGCUGGGGUCUGCAGGU [hsa-miR-6726-5p]	-17.2%	58.1%	73%
AAUAUAACACAGAUGGCCUGU [hsa-miR-410]	-9.74%	27.3%	164%
AAAAUGAAAUGAGCCCAGCCCA [hsa-miR-3646]	-19.1%	21.9%	63.5%
UUUCCUGUCCUCCAACCAGACC [hsa-miR-7152-5p]	11.7%	-28.9%	26.5%
UGUCUCUGCUGGGGUUUCU [hsa-miR-593-3p]	55.4%	-39.2%	18.1%
GGAGUGGGCUGGUGGUU [hsa-miR-4481]	5.61%	6.11%	37.8%
UGGAUGACAGUGGAGGCCU [hsa-miR-6744-5p]	37.8%	-19.1%	20.5%
UAUGUAAUAUGGUCCACAUCUU [hsa-miR-380-3p]	0.458%	-13.1%	90%
UCACACCUGCCUCGCCCCCC [hsa-miR-1228-3p]	5.12%	-13.8%	64.7%
CGCCGCGCGCAUCGGCUCAGC [hsa-miR-6869-3p]	4.08%	-29.2%	28.8%
ACUUACAGACAAGAGCCUUGCUC [hsa-miR-600]	-28.1%	41.8%	145%
AGGGAAGGAGGCUUGGUCUUAG [hsa-miR-4747-5p]	-5.76%	11.6%	29.6%
AAGCAAUACUGUUACCUGAAAU [hsa-miR-3942-5p]	-6.02%	13.9%	36.6%
GCUGGUUUCAUAUGGUGGUUUAGA [hsa-miR-29b-1-5p]	-17.6%	38.2%	100%
ACAGGCGGCUGUAGCAAUGGGGG [hsa-miR-3937]	31.6%	-33.4%	33.1%
UGAGGUAGUAGUUUCUU [hsa-miR-4500]	-31.4%	43.2%	89.3%
GGGCUCACAUCACCCCAU [hsa-miR-4284]	-1.42%	8.32%	40.5%
UCUACAAAGGAAAGCGCUUUCU [hsa-miR-1283]	-26.4%	29.7%	148%
UGAGCUAAAUGUGUGCUGGGA [hsa-miR-610]	-14.8%	20.7%	131%
UUCAUUUGGUAUAAACCGCGAUU [hsa-miR-579]	45.1%	-37.2%	29%
GUGGUUAUCCCUGUCCUGUUCG [hsa-miR-487b-5p]	-1.37%	17.4%	37.4%
ACCCCCGGGCAAAGACCUGCAGAU [hsa-miR-6840-5p]	5.12%	-18.8%	92%
UCUGAGUUCCUGGAGCCUGGUCU [hsa-miR-4682]	-20%	18.8%	104%
